Test results from paper PMC4251497 (2014).

B1: Phenylalanine hydroxylase regulatory domain (RDPheH25-117) 25-117 (protein)
chain: IEDNSNQNGAISLIFSLKEEVGALAKVLRLFEENDINLTHIESRPSRLNKDEYEFFTYLDKRTKPVLGSIIKSLRNDIGATVHELSRDKEKNT
B2: Phenylalanine hydroxylase regulatory domain (RDPheH) 1-117 (protein)
chain: MAAVVLENGVLSRKLSDFGQETSYIEDNSNQNGAISLIFSLKEEVGALAKVLRLFEENDINLTHIESRPSRLNKDEYEFFTYLDKRTKPVLGSIIKSLRNDIGATVHELSRDKEKNT

Molecular target: the molecule itself
Assay: analytical ultracentrifugation

Protein	Kd [µM]
B1	46
B2	46
